Positions count from the first letter of the chain named. Names may count otherwise. “And” between values parts separate entries of the source, which are not always exact repeats. Equal values may be shown once.
Key:
[1] = molecular target: T1, XcpQ_(N012) (N0, N1 and N2 subdomains of the periplasmic N-terminal domain of the P. aeruginosa XcpQ secretin) (Pseudomonas aeruginosa, UniProt P35818); assay: SEC; vHH04 mixed with the preformed XcpQ_(N012) multimer (dodecamer); shift of the H peak; details: both partners purified
T1 construct: XcpQ secretin of the Xcp type II secretion system, Pseudomonas aeruginosa; subdomains N0, N1 and N2; 26 kDa; the whole N domain covers residues 51 to 365; Found in solution as dimers (L) and dodecamers (H); also called matured XcpQ_(N012); untagged XcpQ_(N012)

[2] = molecular target: T2, XcpQ_(N012) with biotin tag (fixed on streptavidin sensors) (Pseudomonas aeruginosa) (UniProt P35818); assay: BLI; XcpQ_(N012) fixed on streptavidin sensors by a biotin tag; soluble vHH04 from 0.156 to 10 µM
T2 sequence (chain, biotin (biotin tag, site not stated)): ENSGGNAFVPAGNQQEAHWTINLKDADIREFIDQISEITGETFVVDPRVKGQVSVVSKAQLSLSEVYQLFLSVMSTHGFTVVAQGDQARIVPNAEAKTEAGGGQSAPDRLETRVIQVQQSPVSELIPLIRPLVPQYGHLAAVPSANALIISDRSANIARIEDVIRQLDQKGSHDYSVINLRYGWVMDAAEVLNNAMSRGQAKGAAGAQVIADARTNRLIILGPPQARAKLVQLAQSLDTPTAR

[3] = molecular target: the molecule itself; assay: cross-linking; in vivo disulfide cross-linking of V5-tagged full-length XcpQ variants in P. aeruginosa PAO1 ΔxcpQ; membranes with N-ethylmaleimide, SDS-PAGE denaturing, nonreducing or reducing, anti-V5 blot
[4] = molecular target: the molecule itself; assay: negative-staining single-particle electron microscopy; SEC fractions diluted to 0.02-0.05 mg/ml, uranyl acetate stain, EMAN2 2D classes; 3D reconstruction with C6 symmetry imposed for the Trx fusions
[5] = molecular target: T3, chitin binding protein D (CbpD), Xcp T2SS effector (Pseudomonas aeruginosa, UniProt Q9I589 26-389); assay: BLI; sensor coupled to CbpD or to XcpPp; XcpQ_(N012) alone or the XcpQ_(N012)-vHH04 complex in solution; details: both partners purified
T3 construct: Coupled to the BLi sensor; source: purified
T3 sequence: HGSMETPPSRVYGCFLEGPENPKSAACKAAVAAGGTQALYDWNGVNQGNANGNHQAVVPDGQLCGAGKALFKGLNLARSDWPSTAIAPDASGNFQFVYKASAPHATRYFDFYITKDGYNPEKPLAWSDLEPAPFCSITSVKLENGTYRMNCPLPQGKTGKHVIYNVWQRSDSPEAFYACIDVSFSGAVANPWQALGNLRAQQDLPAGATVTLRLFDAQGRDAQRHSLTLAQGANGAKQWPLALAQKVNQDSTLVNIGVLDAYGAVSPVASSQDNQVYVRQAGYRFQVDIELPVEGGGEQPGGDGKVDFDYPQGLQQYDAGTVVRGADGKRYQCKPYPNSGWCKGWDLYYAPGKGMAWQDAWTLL

[6] = molecular target: the molecule itself; assay: SEC; HiLoad 16/600 Superdex 200 column calibrated with standard proteins; purified protein alone
[7] = molecular target: the molecule itself; assay: SEC + cross-linking; XcpQ_(N012)-T54C-Q86C without H2O2 treatment, HiLoad Superdex 200 16/600; oligomeric fractions on SDS-PAGE under reducing and nonreducing conditions

B1: vHH04 nanobody directed against XcpQN (VHH)
VHH: QVQLVESGGGSVQAGGSLRLSCAASGNTDSSYYMGWFRQGPGKEREGVASIYIRAGIPYYTDSVKGRFTISQDNAKNTIYLQMNSLKPEDTAMYFCAGSVRTTIQPFKGNYYNYWGRGTQVTVSS
notes: camel nanobody; About 16 kDa; For the in vivo interference the histidine-tagged vHH04 was produced in the periplasm of P. aeruginosa PAO1 (IPTG-inducible); also called histidine-tagged vHH04; His-tagged vHH04; source: E. coli WK6, purified
B1 was tested, and the “stoichiometry N” value [1] was 6 vHH04 per XcpQ_(N012) dodecamer and the Kd [2] was 5.6 µM.

B2: full-length XcpQ-S210C (natural protein)
chain: ENSGGNAFVPAGNQQEAHWTINLKDADIREFIDQISEITGETFVVDPRVKGQVSVVSKAQLSLSEVYQLFLSVMSTHGFTVVAQGDQARIVPNAEAKTEAGGGQSAPDRLETRVIQVQQSPVSELIPLIRPLVPQYGHLAAVPSANALIISDRSANIARIEDVIRQLDQKGSHDYCVINLRYGWVMDAAEVLNNAMSRGQAKGAAGAQVIADARTNRLIILGPPQARAKLVQLAQSLDTPTARSANTRVIRLRHNDAKTLAETLGQISEGMKNNGGQGGEQTGGGRPSNILIRADESTNALVLLADPDTVNALEDIVRQLDVPRAQVLVEAAIVEISGDIQDAVGVQWAINKGGMGGTKTNFANTGLSIGTLLQSLESNKAPESIPDGAIVGIGSSSFGALVTALSANTKSNLLSTPSLLTLDNQKAEILVGQNVPFQTGSYTTNSEGSSNPFTTVERKDIGVSLKVTPHINDGAALRLEIEQEISALLPNAQQRNNTDLITSKRSIKSTILAENGQVIVIGGLIQDDVSQAESKVPLLGDIPLLGRLFRSTKDTHTKRNLMVFLRPTVVRDSAGLAALSGKKYSDIRVIDGTRGPEGRPSILPTNANQLFDGQAVDLRELMTE
modifications: disulfide bridge between S210C of two chains
notes: XcpQ secretin, Pseudomonas aeruginosa, full length; Made with its own signal peptide and exported to the envelope; source: P. aeruginosa PAO1 ΔxcpQ, pJN vector, arabinose-induced, in membrane samples; not shown: V5, C-terminal, kept
In the case of B2, the “stoichiometry N” value [3] is reported as 2.

B3: full-length XcpQ-T54C-Q86C (natural protein)
chain: B2 chain with T20C, Q52C, C176S
modifications: disulfide bridge between T54C and Q86C of two chains
notes: as for B2
With B3 the “stoichiometry N” value [3] was 2.

B4: Trx-XcpQ_(N012)-S210C (domain or fragment)
chain: T2 sequence (chain, biotin (biotin tag, site not stated)) with S176C
notes: XcpQ secretin, Pseudomonas aeruginosa; subdomains N0, N1 and N2; Uncleaved thioredoxin fusion of m3; source: E. coli BL21(DE3)pLysS, purified; copies: 12
B4: binds [4].

B5: XcpQ_(N012) (N0, N1 and N2 subdomains of the periplasmic N-terminal domain of the P. aeruginosa XcpQ secretin) (domain or fragment, Pseudomonas aeruginosa)
chain: T2 sequence (chain, biotin (biotin tag, site not stated))
notes: XcpQ secretin of the Xcp type II secretion system, Pseudomonas aeruginosa; subdomains N0, N1 and N2; 26 kDa; the whole N domain covers residues 51 to 365; Found in solution as dimers (L) and dodecamers (H); also called matured XcpQ_(N012); untagged XcpQ_(N012)
B5: binds [5].

B6: Trx-XcpQ_(N012) fusion protein (domain or fragment)
chain: T2 sequence (chain, biotin (biotin tag, site not stated))
notes: XcpQ secretin, Pseudomonas aeruginosa; subdomains N0, N1 and N2; Uncleaved thioredoxin fusion of m1; also called Trx-Q_(N012); source: E. coli BL21(DE3)pLysS, purified (SEC); copies: 12
In the case of B6, the “stoichiometry N” value [6] is reported as 12.

B7: XcpQ_(N012)-T54C-Q86C (domain or fragment)
chain: T2 sequence (chain, biotin (biotin tag, site not stated)) with T20C, Q52C
modifications: disulfide bridges between T54C and Q86C of neighbouring chains
notes: XcpQ secretin, Pseudomonas aeruginosa; subdomains N0, N1 and N2; source: E. coli BL21(DE3)pLysS, purified (same protocol as XcpQ_(N012), SEC without H2O2 treatment)
In the case of B7, the “stoichiometry N” value [7] is reported as 12 and 4 and 6.

Reference: PMC5646246, “Unraveling the Self-Assembly of the Pseudomonas aeruginosa XcpQ Secretin Periplasmic Domain Provides New Molecular Insights into Type II Secretion System Secreton Architecture and Dynamics” (mBio, 2017)
